Measurements reported in article PMC9316690.

What was measured:
[1] = target: EFm1 D166Q, full-length chain (E. faecalis phage IME-EF1); assay: crystal structure; EFm1_(D166Q) 15 mg/mL, sitting drop, 16 °C; 2.2 Å; phases by Se-Met SAD
[2] = target: C-terminal domain EFm1 166-237 aa (E. faecalis phage IME-EF1); assay: crystal structure; EFm1_(166–237 aa) 10 mg/mL, sitting drop, 16 °C; 2.0 Å; eight monomers in the asymmetric unit

Row | Substance | stoichiometry N (CTD fragments per full-length chain) [1] | stoichiometry N [2]
1 | 8 kDa C-terminal fragment of EFm1, translated from the alternative start codon M168 (domain or fragment) | 3 | –
2 | C-terminal domain EFm1 166-237 aa (domain or fragment) | – | 4
